Values belong to the binder of their own block, whether it stands above or below them.
Key:
[1] = biological target: T1, his-tagged wild-type JMY (pET-JMY, bacterially expressed) (UniProt Q9QXM1 1-983); assay: in vitro translated STRAP derivative binding to his-tagged wild-type JMY
T1 construct: also called His-JMY; purified recombinant JMY; not shown: His tag from pET28a

[2] = biological target: T1, his-tagged wild-type JMY (pET-JMY, …); assay: biochemical binding assay with STRAP derivatives (summary in FIG. 7)
[3] = biological target: T2, Flag-tagged full-length p300 (baculovirus expressed, on M2-anti-flag antibody agarose) (UniProt Q09472 2-2414, limits assumed); assay: as above
T2 construct: mature; also called flag-p300; flag-tagged wild-type p300; not shown: Flag tag
T2 sequence (Q09472 2-2414 limits assumed): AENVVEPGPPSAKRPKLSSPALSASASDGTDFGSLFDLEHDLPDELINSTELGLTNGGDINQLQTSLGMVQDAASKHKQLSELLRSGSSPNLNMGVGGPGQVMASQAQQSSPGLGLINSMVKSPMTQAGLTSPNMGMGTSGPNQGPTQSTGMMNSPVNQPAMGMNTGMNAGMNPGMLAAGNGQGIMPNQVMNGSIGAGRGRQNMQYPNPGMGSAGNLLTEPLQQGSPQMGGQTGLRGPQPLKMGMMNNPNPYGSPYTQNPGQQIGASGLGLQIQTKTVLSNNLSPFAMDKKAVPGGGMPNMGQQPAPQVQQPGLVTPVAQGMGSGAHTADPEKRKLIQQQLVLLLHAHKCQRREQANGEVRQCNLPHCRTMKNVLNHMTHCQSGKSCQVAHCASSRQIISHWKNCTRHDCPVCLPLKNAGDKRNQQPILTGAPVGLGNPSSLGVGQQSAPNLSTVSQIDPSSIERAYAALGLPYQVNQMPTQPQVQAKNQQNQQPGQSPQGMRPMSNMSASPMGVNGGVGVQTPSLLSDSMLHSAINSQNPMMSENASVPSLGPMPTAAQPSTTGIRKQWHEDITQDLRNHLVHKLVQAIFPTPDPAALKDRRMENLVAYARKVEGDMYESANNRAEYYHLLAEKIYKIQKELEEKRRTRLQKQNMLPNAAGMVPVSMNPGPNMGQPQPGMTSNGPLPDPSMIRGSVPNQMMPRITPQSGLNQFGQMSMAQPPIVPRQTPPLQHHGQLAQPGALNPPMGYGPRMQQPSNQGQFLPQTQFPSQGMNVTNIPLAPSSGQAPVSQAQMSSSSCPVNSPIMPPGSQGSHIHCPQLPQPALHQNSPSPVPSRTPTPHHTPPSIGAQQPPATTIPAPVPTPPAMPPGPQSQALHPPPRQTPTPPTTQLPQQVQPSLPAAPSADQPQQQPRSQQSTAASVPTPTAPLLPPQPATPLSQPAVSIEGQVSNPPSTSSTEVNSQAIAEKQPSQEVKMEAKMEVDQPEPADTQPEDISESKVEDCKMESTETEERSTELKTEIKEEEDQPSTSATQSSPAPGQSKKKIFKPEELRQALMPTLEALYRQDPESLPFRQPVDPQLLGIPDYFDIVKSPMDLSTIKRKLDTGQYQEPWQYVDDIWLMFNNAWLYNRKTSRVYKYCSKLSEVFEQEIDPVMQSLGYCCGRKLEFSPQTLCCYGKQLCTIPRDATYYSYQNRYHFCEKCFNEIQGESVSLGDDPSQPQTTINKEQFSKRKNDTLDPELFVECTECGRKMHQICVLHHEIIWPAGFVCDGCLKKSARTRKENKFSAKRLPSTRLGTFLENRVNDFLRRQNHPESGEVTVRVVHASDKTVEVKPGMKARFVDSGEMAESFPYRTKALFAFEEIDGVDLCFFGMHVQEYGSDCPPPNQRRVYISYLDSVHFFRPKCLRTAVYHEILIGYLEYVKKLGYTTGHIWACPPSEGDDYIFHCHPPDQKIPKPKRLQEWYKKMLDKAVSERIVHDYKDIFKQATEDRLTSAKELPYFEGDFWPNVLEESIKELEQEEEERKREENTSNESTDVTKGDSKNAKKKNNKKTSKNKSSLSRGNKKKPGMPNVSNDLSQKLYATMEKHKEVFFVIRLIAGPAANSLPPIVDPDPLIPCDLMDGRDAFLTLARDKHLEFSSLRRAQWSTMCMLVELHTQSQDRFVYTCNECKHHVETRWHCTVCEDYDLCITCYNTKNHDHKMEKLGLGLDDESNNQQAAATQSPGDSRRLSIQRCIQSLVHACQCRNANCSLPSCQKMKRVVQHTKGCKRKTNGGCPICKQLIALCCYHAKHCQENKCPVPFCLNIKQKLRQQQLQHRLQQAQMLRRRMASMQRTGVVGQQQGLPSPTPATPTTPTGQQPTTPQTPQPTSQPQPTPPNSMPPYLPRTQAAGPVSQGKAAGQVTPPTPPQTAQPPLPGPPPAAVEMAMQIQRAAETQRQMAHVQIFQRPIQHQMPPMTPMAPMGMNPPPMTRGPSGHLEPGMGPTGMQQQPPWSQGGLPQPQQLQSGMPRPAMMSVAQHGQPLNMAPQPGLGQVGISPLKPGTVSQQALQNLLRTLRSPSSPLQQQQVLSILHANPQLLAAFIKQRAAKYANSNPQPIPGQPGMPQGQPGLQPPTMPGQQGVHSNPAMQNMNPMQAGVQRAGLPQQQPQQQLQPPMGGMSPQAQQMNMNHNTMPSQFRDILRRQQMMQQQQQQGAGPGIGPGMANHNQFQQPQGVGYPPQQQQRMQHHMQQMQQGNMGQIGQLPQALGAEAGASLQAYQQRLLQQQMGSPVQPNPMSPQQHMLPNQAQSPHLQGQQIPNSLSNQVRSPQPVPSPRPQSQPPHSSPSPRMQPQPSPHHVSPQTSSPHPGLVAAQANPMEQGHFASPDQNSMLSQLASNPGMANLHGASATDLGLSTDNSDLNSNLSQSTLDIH

[4] = biological target: T3, JMY683-983 (pCMV-HA-JMY683-983, in vitro translated) (UniProt Q9QXM1 683-983); assay: in vitro translated JMY derivatives tested for binding to STRAP
T3 sequence (looked up): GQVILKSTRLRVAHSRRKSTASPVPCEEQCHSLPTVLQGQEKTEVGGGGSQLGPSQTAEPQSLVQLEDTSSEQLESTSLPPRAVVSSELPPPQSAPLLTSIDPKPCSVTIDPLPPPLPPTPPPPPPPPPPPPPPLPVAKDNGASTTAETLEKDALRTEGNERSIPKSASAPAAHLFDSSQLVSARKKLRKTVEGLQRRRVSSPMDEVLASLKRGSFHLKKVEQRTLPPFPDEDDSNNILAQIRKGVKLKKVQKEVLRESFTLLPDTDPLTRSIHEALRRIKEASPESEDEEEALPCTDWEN

[5] = biological target: JMY1-119 (pCMV-HA-JMY1-119, in vitro translated) (UniProt Q9QXM1 1-119); assay: as above
[6] = biological target: T2, Flag-tagged full-length p300 …; assay: biochemical binding assay with a panel of p300 derivatives
[7] = biological target: T1, his-tagged wild-type JMY (pET-JMY, …); assay: summary of the biochemical binding assays
[8] = biological target: T2, Flag-tagged full-length p300 …; assay: in vitro translated STRAP derivative binding to flag-tagged wild-type p300 on anti-flag agarose
[9] = biological target: p300 (pCMV-p300, expressed in transfected cells) (UniProt Q09472 1-2414); assay: co-immunoprecipitation from STRAP expressing U2OS cells treated with etoposide, against untreated cells
p300 (pCMV-p300, expressed in transfected cells), sequence (Q09472 whole entry): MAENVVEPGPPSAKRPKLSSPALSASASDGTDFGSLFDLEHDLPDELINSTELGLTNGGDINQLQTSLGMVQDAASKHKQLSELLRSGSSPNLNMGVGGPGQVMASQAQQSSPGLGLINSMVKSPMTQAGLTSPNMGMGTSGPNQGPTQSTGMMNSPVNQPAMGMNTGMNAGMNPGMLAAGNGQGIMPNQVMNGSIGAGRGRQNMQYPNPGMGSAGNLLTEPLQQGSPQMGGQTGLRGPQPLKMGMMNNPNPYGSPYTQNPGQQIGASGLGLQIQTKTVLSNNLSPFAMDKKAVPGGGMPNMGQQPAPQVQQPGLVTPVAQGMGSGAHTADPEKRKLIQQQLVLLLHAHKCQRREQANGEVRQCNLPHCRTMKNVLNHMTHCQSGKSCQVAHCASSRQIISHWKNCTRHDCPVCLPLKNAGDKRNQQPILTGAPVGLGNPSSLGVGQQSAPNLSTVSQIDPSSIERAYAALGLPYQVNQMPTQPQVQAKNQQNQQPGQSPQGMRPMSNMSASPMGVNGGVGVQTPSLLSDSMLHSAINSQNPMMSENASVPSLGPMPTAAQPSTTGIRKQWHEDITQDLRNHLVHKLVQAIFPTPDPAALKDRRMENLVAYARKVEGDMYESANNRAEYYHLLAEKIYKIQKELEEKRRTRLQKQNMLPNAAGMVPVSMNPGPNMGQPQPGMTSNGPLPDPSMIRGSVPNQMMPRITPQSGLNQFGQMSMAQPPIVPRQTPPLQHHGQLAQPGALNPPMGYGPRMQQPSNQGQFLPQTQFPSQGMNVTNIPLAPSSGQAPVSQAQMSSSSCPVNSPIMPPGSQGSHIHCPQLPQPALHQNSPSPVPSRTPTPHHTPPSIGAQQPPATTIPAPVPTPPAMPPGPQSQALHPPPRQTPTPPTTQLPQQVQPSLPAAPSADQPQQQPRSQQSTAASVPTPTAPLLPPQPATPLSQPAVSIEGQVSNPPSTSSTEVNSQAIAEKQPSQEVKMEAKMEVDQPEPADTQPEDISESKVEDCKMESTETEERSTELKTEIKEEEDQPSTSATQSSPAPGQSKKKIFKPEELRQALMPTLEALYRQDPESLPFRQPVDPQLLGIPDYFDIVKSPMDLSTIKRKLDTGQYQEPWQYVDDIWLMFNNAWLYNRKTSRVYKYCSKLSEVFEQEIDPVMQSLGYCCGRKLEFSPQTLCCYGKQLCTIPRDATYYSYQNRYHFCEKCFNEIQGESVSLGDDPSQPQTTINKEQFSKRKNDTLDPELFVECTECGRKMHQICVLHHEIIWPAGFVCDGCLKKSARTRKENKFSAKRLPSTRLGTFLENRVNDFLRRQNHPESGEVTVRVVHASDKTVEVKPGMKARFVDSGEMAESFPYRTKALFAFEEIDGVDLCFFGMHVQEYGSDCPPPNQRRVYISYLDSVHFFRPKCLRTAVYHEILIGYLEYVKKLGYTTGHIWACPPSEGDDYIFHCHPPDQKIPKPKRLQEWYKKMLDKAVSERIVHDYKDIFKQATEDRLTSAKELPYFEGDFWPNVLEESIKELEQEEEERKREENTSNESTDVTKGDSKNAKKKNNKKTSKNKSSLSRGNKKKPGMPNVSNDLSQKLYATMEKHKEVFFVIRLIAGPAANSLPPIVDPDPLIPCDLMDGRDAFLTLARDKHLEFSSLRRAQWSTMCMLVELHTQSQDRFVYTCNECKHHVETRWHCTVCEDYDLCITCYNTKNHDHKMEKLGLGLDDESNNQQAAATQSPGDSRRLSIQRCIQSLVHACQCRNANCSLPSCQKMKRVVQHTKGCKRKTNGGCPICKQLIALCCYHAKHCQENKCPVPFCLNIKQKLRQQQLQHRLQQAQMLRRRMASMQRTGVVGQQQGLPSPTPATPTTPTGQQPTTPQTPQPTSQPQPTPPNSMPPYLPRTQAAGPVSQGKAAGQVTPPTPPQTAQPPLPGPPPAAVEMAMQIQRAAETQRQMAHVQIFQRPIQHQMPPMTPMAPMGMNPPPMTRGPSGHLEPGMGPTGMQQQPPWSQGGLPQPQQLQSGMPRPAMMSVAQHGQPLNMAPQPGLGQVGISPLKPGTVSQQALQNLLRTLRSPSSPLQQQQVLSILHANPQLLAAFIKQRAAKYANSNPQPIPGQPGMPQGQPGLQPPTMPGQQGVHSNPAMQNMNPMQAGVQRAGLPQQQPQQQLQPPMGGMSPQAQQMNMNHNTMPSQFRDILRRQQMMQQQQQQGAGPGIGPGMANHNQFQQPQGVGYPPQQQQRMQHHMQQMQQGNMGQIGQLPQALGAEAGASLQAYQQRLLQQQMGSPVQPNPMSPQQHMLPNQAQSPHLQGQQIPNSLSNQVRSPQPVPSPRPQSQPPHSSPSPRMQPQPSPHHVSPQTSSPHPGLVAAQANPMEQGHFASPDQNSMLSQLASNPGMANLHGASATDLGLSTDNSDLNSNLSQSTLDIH

[10] = biological target: T1, his-tagged wild-type JMY (pET-JMY, …); assay: binding properties of the STRAP mutant derivative
[11] = biological target: T2, Flag-tagged full-length p300 …; assay: binding properties of the STRAP mutant derivative

B1: STRAP123-205 (other, not shown: small tags and cut ends)
chain: HTCFSGALTHCKNKVSLQNLSMVLRQLQTDSGDEHSRHVMDSVRQAKLAVQMDVLDGRSWYILGNAYLSLYFNTGQNPKISQQ
notes: In vitro translated
binding result [1]: binds

B2: STRAP8-123 (other)
chain: EAKHVLQKLQGLVDRLYCFRDSYFETHSVEDAGRKQQDVQEEMEKTLQQMEEVLGSAQVEAQALMLKGKALNVTPDYSPEAEVLLSKAVKLEPELVEAWNQLGEVYWKKGDVTSAH
notes: A pET form also exists; not shown: HA tag (pCMV-HA, in vitro translated) or His tag (pET28C, purified)
binding result [2]: binds | binding result [3]: no binding

B5: JMY (pCMV-JMY, expressed in transfected cells) (other, UniProt Q9QXM1 1-983, looked up)
chain: MSFALEETLESDWVAVRPHVFDEREKHKFVFIVAWNEIEGKFAITCHNRTAQRQRSGSREQAGTPASDGSRGPGSPAARGRSEAAASATAALRSPGPRKSQAWAEGGSPRSARSLKGDPPRGPAGRGPESPLRSPARAKASPLRRSAESRDAIASATPVPPAPPVPPVSSVRVVSASGAVSEEIEVLEMVREDEAPQPLPDSEQPPSAAELESSAEECSWAGLFSFQDLRAVHQQLCSVNSQLEPCLPVFPEEPSGMWTVLFGGAPEMTEQEIDALCYQLQVYLGHGLDTCGWKILSQVLFTETDDPEEYYESLSELRQKGYEEVLQRARRRIQELLDKHKTIESMVELLDLYQMEDEAYSSLAEATTELYQYLLQPFRDMRELAMLRRQQIKISMENDYLGPRRIESLQKEDADWQRKAHMAVLSIQDLTVKYFEITAKAQKAVYDRMRADQKKFGKASWAAAAERMEKLQYAVSKETLQMMRAKEICLEQKKHALKEEMQSLQGGTEAIARLDQLESDYYDLQLQLYEVQFEILKCEELLLTAQLESIKRLISEKRDEVVYYDTYESMEAMLEKEEMAASVHAQREELQKLQQKARQLEARRGRVSAKKAYLRNKKEICIAKHHEKFQQRFQSEDEYRAHHTIQIKRDKLHDEEERKSAWVSQERQRTLDRLRTFKQRYPGQVILKSTRLRVAHSRRKSTASPVPCEEQCHSLPTVLQGQEKTEVGGGGSQLGPSQTAEPQSLVQLEDTSSEQLESTSLPPRAVVSSELPPPQSAPLLTSIDPKPCSVTIDPLPPPLPPTPPPPPPPPPPPPPPLPVAKDNGASTTAETLEKDALRTEGNERSIPKSASAPAAHLFDSSQLVSARKKLRKTVEGLQRRRVSSPMDEVLASLKRGSFHLKKVEQRTLPPFPDEDDSNNILAQIRKGVKLKKVQKEVLRESFTLLPDTDPLTRSIHEALRRIKEASPESEDEEEALPCTDWEN
notes: also called JMY co-factor; wild-type JMY
fold increase in the level of co-immunoprecipitated JMY with p300 [9]: ~10 fold

More lines, now with the values ahead:

binding result [4]: binds | binding result [5]: binds | binding result [6]: binds | binding result [7]: binds
B3: STRAP (construct not stated for the experiment) (other)
chain: EAKHVLQKLQGLVDRLYCFRDSYFETHSVEDAGRKQQDVQEEMEKTLQQMEEVLGSAQVEAQALMLKGKALNVTPDYSPEAEVLLSKAVKLEPELVEAWNQLGEVYWKKGDVTSAHTCFSGALTHCKNKVSLQNLSMVLRQLQTDSGDEHSRHVMDSVRQAKLAVQMDVLDGRSWYILGNAYLSLYFNTGQNPKISQQALSAYAQAEKVDRKASSNPDLHLNRATLHKYEESYGEALEGFSQAAALDPAWPEPQQREQQLLEFLSRLTSLLESKGKTKPKKLQSMLGSLRPAHLGPCGDGRYQSASGQKMTLELKPLSTLQPGVNSGTVVLGKVVFSLTTEEKVPFTFGLVDSDGPCYAVMVYNVVQSWGVLIGDSVAIPEPNLRHHQIRHKGKDYSFSSVRVETPLLLVVNGKPQNSSSQASATVASRPQ
notes: also called 60,000 molecular weight STRAP polypeptide

binding result [1]: binds | binding result [8]: binds
B4: STRAP206-438 (other, not shown: small tags and cut ends)
chain: ALSAYAQAEKVDRKASSNPDLHLNRATLHKYEESYGEALEGFSQAAALDPAWPEPQQREQQLLEFLSRLTSLLESKGKTKPKKLQSMLGSLRPAHLGPCGDGRYQSASGQKMTLELKPLSTLQPGVNSGTVVLGKVVFSLTTEEKVPFTFGLVDSDGPCYAVMVYNVVQSWGVLIGDSVAIPEPNLRHHQIRHKGKDYSFSSVRVETPLLLVVNGKPQNSSSQASATVASRPQ
notes: In vitro translated

binding result [10]: binds | binding result [11]: no binding
B6: STRAP8-205 (other, not shown: small tags and cut ends)
chain: EAKHVLQKLQGLVDRLYCFRDSYFETHSVEDAGRKQQDVQEEMEKTLQQMEEVLGSAQVEAQALMLKGKALNVTPDYSPEAEVLLSKAVKLEPELVEAWNQLGEVYWKKGDVTSAHTCFSGALTHCKNKVSLQNLSMVLRQLQTDSGDEHSRHVMDSVRQAKLAVQMDVLDGRSWYILGNAYLSLYFNTGQNPKISQQ
